B1: COP9 signalosome complex subunit 1 (Arabidopsis thaliana (Mouse-ear cress)), P45432 (parent)
chain: MERDEEASGPMMEMCTNGGEETSNRRPIISGEPLDIEAYAALYKGRTKIMRLLFIANHCGGNHALQFDALRMAYDEIKKGENTQLFREVVNKIGNRLGEKYGMDLAWCEAVDRRAEQKKVKLENELSSYRTNLIKESIRMGYNDFGDFYYACGMLGDAFKNYIRTRDYCTTTKHIIHMCMNAILVSIEMGQFTHVTSYVNKAEQNPETLEPMVNAKLRCASGLAHLELKKYKLAARKFLDVNPELGNSYNEVIAPQDIATYGGLCALASFDRSELKQKVIDNINFRNFLELVPDVRELINDFYSSRYASCLEYLASLKSNLLLDIHLHDHVDTLYDQIRKKALIQYTLPFVSVDLSRMADAFKTSVSGLEKELEALITDNQIQARIDSHNKILYARHADQRNATFQKVLQMGNEFDRDVRAMLLRANLLKHEYHARSARKL
partner: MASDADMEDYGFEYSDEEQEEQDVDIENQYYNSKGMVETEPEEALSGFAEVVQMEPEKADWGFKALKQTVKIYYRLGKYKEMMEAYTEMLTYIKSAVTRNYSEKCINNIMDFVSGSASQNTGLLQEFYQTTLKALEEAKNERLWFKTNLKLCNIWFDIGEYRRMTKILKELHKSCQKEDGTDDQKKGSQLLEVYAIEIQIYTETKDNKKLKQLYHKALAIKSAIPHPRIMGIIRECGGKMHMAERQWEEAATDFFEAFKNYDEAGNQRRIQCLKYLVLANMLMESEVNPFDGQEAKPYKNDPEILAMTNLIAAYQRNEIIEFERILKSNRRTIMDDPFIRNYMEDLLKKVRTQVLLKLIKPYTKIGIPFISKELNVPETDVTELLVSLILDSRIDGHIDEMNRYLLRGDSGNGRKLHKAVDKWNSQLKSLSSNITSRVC
B2: COP9 signalosome complex subunit 1 (Arabidopsis thaliana (Mouse-ear cress)), P45432 (parent)
chain: B1 chain
partner: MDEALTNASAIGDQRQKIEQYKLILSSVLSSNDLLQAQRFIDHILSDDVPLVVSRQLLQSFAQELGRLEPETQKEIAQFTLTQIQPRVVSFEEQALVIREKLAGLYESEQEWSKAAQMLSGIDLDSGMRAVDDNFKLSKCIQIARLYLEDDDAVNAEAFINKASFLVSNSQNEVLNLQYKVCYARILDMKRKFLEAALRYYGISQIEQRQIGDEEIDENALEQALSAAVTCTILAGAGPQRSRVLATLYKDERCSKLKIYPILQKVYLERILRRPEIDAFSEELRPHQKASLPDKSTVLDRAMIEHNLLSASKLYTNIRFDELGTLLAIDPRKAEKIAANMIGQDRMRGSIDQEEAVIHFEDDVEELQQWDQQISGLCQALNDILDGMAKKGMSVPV

Variants of: B1
Conditions: with csn2_arath CSN2, Q8W207

Variant | effect of a mutation on the interaction
G222R | disrupting interaction

Variants of: B2
Conditions: with csn4_arath CSN4, Q8L5U0

Variant | effect of a mutation on the interaction
G222R | disrupting interaction

From IntAct's records for PubMed 11854419
